Experimental data reported in IntAct's records for PubMed 19474792.

B1: DYRK-family kinase pom1 (Schizosaccharomyces pombe (strain ATCC 38366 / 972)), Q09690 (parent)
chain: MGYLQSQKAVSLGDENTDALFKLHTSNRKSANMFGIKSELLNPSELSAVGSYSNDICPNRQSSSSTAADTSPSTNASNTNISFPEQEHKDELFMNVEPKGVGSSMDNHAITIHHSTGNGLLRSSFDHDYRQKNSPRNSIHRLSNISIGNNPIDFESSQQNNPSSLNTSSHHRTSSISNSKSFGTSLSYYNRSSKPSDWNQQNNGGHLSGVISITQDVSSVPLQSSVFSSGNHAYHASMAPKRSGSWRHTNFHSTSHPRAASIGNKSGIPPVPTIPPNIGHSTDHQHPKANISGSLTKSSSESKNLSTIQSPLKTSNSFFKELSPHSQITLSNVKNNHSHVGSQTKSHSFATPSVFDNNKPVSSDNHNNTTTSSQVHPDSRNPDPKAAPKAVSQKTNVDGHRNHEAKHGNTVQNESKSQKSSNKEGRSSRGGFFSRLSFSRSSSRMKKGSKAKHEDAPDVPAIPHAYIADSSTKSSYRNGKKTPTRTKSRMQQFINWFKPSKERSSNGNSDSASPPPVPRLSITRSQVSREPEKPEEIPSVPPLPSNFKDKGHVPQQRSVSYTPKRSSDTSESLQPSLSFASSNVLSEPFDRKVADLAMKAINSKRINKLLDDAKVMQSLLDRACIITPVRNTEVQLINTAPLTEYEQDEINNYDNIYFTGLRNVDKRRSADENTSSNFGFDDERGDYKVVLGDHIAYRYEVVDFLGKGSFGQVLRCIDYETGKLVALKIIRNKKRFHMQALVETKILQKIREWDPLDEYCMVQYTDHFYFRDHLCVATELLGKNLYELIKSNGFKGLPIVVIKSITRQLIQCLTLLNEKHVIHCDLKPENILLCHPFKSQVKVIDFGSSCFEGECVYTYIQSRFYRSPEVILGMGYGTPIDVWSLGCIIAEMYTGFPLFPGENEQEQLACIMEIFGPPDHSLIDKCSRKKVFFDSSGKPRPFVSSKGVSRRPFSKSLHQVLQCKDVSFLSFISDCLKWDPDERMTPQQAAQHDFLTGKQDVRRPNTAPARQKFARPPNIETAPIPRPLPNLPMEYNDHTLPSPKEPSNQASNLVRSSDKFPNLLTNLDYSIISDNGFLRKPVEKSRP
partner: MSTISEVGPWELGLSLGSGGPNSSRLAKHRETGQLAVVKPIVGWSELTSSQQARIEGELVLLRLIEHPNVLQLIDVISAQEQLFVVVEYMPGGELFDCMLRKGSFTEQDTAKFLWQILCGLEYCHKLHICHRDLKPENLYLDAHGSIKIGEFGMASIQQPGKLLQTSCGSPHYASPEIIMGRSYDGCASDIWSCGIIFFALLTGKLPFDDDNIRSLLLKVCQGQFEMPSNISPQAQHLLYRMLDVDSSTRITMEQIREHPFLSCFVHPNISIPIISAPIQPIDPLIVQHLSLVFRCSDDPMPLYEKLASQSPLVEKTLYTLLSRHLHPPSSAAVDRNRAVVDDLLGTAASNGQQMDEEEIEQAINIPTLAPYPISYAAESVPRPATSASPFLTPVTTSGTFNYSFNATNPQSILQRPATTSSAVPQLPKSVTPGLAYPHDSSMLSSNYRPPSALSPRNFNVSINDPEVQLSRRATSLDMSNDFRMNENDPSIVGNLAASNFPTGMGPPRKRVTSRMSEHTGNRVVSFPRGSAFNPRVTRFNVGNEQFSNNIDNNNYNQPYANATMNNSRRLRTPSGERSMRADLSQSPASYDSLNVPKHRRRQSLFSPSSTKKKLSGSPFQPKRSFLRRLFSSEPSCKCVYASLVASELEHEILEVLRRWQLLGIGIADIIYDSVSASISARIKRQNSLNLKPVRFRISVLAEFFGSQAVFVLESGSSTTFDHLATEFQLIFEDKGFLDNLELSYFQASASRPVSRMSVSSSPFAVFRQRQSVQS

Variants of: B1
Conditions: with cdr2_schpo cdr2, P87050

effect of a mutation on the interaction | Variant
disrupting interaction | K728R
